The chains are these.
B1: H183/L072 VL P95Q (antibody, name in Kabat numbering, V domains shown)
VH: QVQLVESGGGLVQPGRSLRLSCAASGFTFSNAWMHWVRQAPGKGLEWVAQIKDKGNAYAAYYAPSVKGRFTISRDDSKNSIYLQMNSLKTEDTAVYYCHYVHYASASTVLPAFGVDAWGQGTTVTVSS
VL: DIVMTQSPLSLPVTPGEPASISCQASQELVHMNRNTYLHWYQQKPGQAPRLLIYKVSNRFPGVPDRFSGSGSGTDFTLKISRVEAEDVGVYYCAQGTSVQFTFGQGTKLEIK
B2: H183/L072 VL Q24S (antibody, name in Kabat numbering, V domains shown)
VH: B1 VH
VL: B1 VL with Q24S, Q100P
B3: H183/L072 VL Q27L (antibody, name in Kabat numbering, V domains shown)
VH: B1 VH
VL: B1 VL with Q27L, Q100P
B4: H183/L072 VL Q27H (antibody, name in Kabat numbering, V domains shown)
VH: B1 VH
VL: B1 VL with Q27H, Q100P
B5: H183/L072 VL Q24N (antibody, name in Kabat numbering, V domains shown)
VH: B1 VH
VL: B1 VL with Q24N, Q100P
B6: H183/L072 VL Q27Y (antibody, name in Kabat numbering, V domains shown)
VH: B1 VH
VL: B1 VL with Q27Y, Q100P
B7: H183/L072 VL Q24Y (antibody, name in Kabat numbering, V domains shown)
VH: B1 VH
VL: B1 VL with Q24Y, Q100P
B8: H183/L072 VL Q24R (antibody, name in Kabat numbering, V domains shown)
VH: B1 VH
VL: B1 VL with Q24R, Q100P
B9: H183/L072 VL Q24K (antibody, name in Kabat numbering, V domains shown)
VH: B1 VH
VL: B1 VL with Q24K, Q100P
B10: H183/L072 VL Q27W (antibody, name in Kabat numbering, V domains shown)
VH: B1 VH
VL: B1 VL with Q27W, Q100P
B11: H183/L072 VL Q24I (antibody, name in Kabat numbering, V domains shown)
VH: B1 VH
VL: B1 VL with Q24I, Q100P
B12: H183/L072 VL Q90S (antibody, name in Kabat numbering, V domains shown)
VH: B1 VH
VL: B1 VL with Q95S, Q100P
B13: H183/L072 VL Q27F (antibody, name in Kabat numbering, V domains shown)
VH: B1 VH
VL: B1 VL with Q27F, Q100P
B14: H183/L072 VL Q27M (antibody, name in Kabat numbering, V domains shown)
VH: B1 VH
VL: B1 VL with Q27M, Q100P
B15: H183/L072 VL Q27I (antibody, name in Kabat numbering, V domains shown)
VH: B1 VH
VL: B1 VL with Q27I, Q100P
B16: H183/L072 VL Q27S (antibody, name in Kabat numbering, V domains shown)
VH: B1 VH
VL: B1 VL with Q27S, Q100P
B17: H183/L072 VL Q27K (antibody, name in Kabat numbering, V domains shown)
VH: B1 VH
VL: B1 VL with Q27K, Q100P
B18: H183/L072 VL Q27E (antibody, name in Kabat numbering, V domains shown)
VH: B1 VH
VL: B1 VL with Q27E, Q100P
B19: H183/L072 VL Q90E (antibody, name in Kabat numbering, V domains shown)
VH: B1 VH
VL: B1 VL with Q95E, Q100P
B20: H183/L072 VL Q27A (antibody, name in Kabat numbering, V domains shown)
VH: B1 VH
VL: B1 VL with Q27A, Q100P
B21: H183/L072 VL Q27V (antibody, name in Kabat numbering, V domains shown)
VH: B1 VH
VL: B1 VL with Q27V, Q100P
B22: H183/L072 VL Q27D (antibody, name in Kabat numbering, V domains shown)
VH: B1 VH
VL: B1 VL with Q27D, Q100P
B23: H183/L072 VL Q90H (antibody, name in Kabat numbering, V domains shown)
VH: B1 VH
VL: B1 VL with Q95H, Q100P
B24: H183/L072 VL Q24G (antibody, name in Kabat numbering, V domains shown)
VH: B1 VH
VL: B1 VL with Q24G, Q100P
B25: H183/L072 VL Q24V (antibody, name in Kabat numbering, V domains shown)
VH: B1 VH
VL: B1 VL with Q24V, Q100P
B26: H183/L072 VL Q24D (antibody, name in Kabat numbering, V domains shown)
VH: B1 VH
VL: B1 VL with Q24D, Q100P
B27: H183/L072 VL Q27R (antibody, name in Kabat numbering, V domains shown)
VH: B1 VH
VL: B1 VL with Q27R, Q100P
B28: H183/L072 VL Q27N (antibody, name in Kabat numbering, V domains shown)
VH: B1 VH
VL: B1 VL with Q27N, Q100P
B29: H183/L072 VL Q24T (antibody, name in Kabat numbering, V domains shown)
VH: B1 VH
VL: B1 VL with Q24T, Q100P
B30: H183/L072 VL Q24M (antibody, name in Kabat numbering, V domains shown)
VH: B1 VH
VL: B1 VL with Q24M, Q100P
B31: H183/L072 VL Q24E (antibody, name in Kabat numbering, V domains shown)
VH: B1 VH
VL: B1 VL with Q24E, Q100P
B32: H183/L072 VL Q24W (antibody, name in Kabat numbering, V domains shown)
VH: B1 VH
VL: B1 VL with Q24W, Q100P
B33: H183/L072 VL Q24A (antibody, name in Kabat numbering, V domains shown)
VH: B1 VH
VL: B1 VL with Q24A, Q100P
B34: H183/L072 VL P95T (antibody, name in Kabat numbering, V domains shown)
VH: B1 VH
VL: B1 VL with Q100T
B35: H183/L072 VL Q27G (antibody, name in Kabat numbering, V domains shown)
VH: B1 VH
VL: B1 VL with Q27G, Q100P
B36: H183/L072 VL Q90D (antibody, name in Kabat numbering, V domains shown)
VH: B1 VH
VL: B1 VL with Q95D, Q100P
B37: H183/L072 VL P95S (antibody, name in Kabat numbering, V domains shown)
VH: B1 VH
VL: B1 VL with Q100S
B38: H183/L072 VL Q90K (antibody, name in Kabat numbering, V domains shown)
VH: B1 VH
VL: B1 VL with Q95K, Q100P
B39: H183/L072 VL Q24F (antibody, name in Kabat numbering, V domains shown)
VH: B1 VH
VL: B1 VL with Q24F, Q100P
B40: H183/L072 VL Q24H (antibody, name in Kabat numbering, V domains shown)
VH: B1 VH
VL: B1 VL with Q24H, Q100P
B41: H183/L072 VL Q27T (antibody, name in Kabat numbering, V domains shown)
VH: B1 VH
VL: B1 VL with Q27T, Q100P
B42: H183/L072 VL Q24L (antibody, name in Kabat numbering, V domains shown)
VH: B1 VH
VL: B1 VL with Q24L, Q100P

Numbering of substitutions follows the chain as printed. Numbers in names are those of the source.

The experiment has as its target T1, Human CD3eg linker (human).
T1 construct: Single-chain construct; also called recombinant human CD3
T1 chain: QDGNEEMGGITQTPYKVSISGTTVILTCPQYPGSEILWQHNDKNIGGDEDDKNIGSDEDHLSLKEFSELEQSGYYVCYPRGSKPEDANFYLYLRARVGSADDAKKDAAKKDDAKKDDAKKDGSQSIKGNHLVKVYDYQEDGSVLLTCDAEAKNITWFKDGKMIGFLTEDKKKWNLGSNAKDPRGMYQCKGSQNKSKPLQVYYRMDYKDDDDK
Description: SPR; fold vs parent H183/L072.
As for B1, the “fold change of affinity” value turned out to be 0 fold.
Turning to B2, the “fold change of affinity” value amounted to 1.1 fold.
For B3, the “fold change of affinity” value is 1 fold.
B4: the “fold change of affinity” value turned out to be 1.2 fold.
In the case of B5, the “fold change of affinity” value is 1.1 fold.
In the case of B6 it was 0.9 fold.
B7: the “fold change of affinity” value worked out at 1 fold.
Turning to B8, the “fold change of affinity” value stood at 1 fold.
B9: the “fold change of affinity” value came out at 1 fold.
For B10, the “fold change of affinity” value amounted to 0.7 fold.
B11: the “fold change of affinity” value was 1.2 fold.
With B12, the “fold change of affinity” value came out at 0 fold.
As for B13, the “fold change of affinity” value worked out at 0.9 fold.
Take B14: the “fold change of affinity” value worked out at 1.2 fold.
Take B15: the “fold change of affinity” value stood at 0.8 fold.
B16: the “fold change of affinity” value came out at 1.1 fold.
As to B17, the “fold change of affinity” value turned out to be 0.8 fold.
As to B18, the “fold change of affinity” value was 1.1 fold.
On to B19, for which the “fold change of affinity” value was determined as 0.4 fold.
As to B20, the “fold change of affinity” value is 1.2 fold.
Consider B21, for which the “fold change of affinity” value was determined as 0.9 fold.
With B22, the “fold change of affinity” value was found to be 1.1 fold.
For B23, the “fold change of affinity” value came out at 0.1 fold.
Turning to B24, the “fold change of affinity” value is 1.2 fold.
On to B25, for which the “fold change of affinity” value came out at 1.2 fold.
On to B26, for which the “fold change of affinity” value worked out at 1.2 fold.
Regarding B27, the “fold change of affinity” value was found to be 1 fold.
Take B28: the “fold change of affinity” value came to 1 fold.
B29: the “fold change of affinity” value turned out to be 1.1 fold.
Take B30: the “fold change of affinity” value was found to be 1.1 fold.
As to B31, the “fold change of affinity” value stood at 0 fold.
Take B32: the “fold change of affinity” value was 1.1 fold.
Regarding B33, the “fold change of affinity” value is 1.1 fold.
Turning to B34, the “fold change of affinity” value was 0 fold.
Consider B35, for which the “fold change of affinity” value came out at 1 fold.
With B36, the “fold change of affinity” value stood at 0 fold.
Under B37 stands 0 fold.
As to B38, the “fold change of affinity” value was found to be 0 fold.
In the case of B39, the “fold change of affinity” value came out at 0.9 fold.
In the case of B40, the “fold change of affinity” value was determined as 1.1 fold.
Take B41: the “fold change of affinity” value was determined as 1 fold.
Take B42: the “fold change of affinity” value amounted to 1.2 fold.
